Measured values taken from paper PMC10117100, “The E2F4/p130 Repressor Complex Cooperates with Oncogenic ΔNp73α To Inhibit Gene Expression in Human Papillomavirus 38 E6/E7-Transformed Keratinocytes and in Cancer Cells” (mSphere, 2023).

T1: Gluc1-ΔNp73α FL (human, UniProt O15350-8 1-587)
T1 construct: ΔNp73α isoform of p73, whole ORF, 587 residues by the printed numbering; numbers count on: ΔNp73α; source: HEK293T, transfected (pSPICA vector), in cells; not shown: Gluc1 (fragment of Gaussia princeps luciferase), N-terminal, kept
T1 sequence (looked up): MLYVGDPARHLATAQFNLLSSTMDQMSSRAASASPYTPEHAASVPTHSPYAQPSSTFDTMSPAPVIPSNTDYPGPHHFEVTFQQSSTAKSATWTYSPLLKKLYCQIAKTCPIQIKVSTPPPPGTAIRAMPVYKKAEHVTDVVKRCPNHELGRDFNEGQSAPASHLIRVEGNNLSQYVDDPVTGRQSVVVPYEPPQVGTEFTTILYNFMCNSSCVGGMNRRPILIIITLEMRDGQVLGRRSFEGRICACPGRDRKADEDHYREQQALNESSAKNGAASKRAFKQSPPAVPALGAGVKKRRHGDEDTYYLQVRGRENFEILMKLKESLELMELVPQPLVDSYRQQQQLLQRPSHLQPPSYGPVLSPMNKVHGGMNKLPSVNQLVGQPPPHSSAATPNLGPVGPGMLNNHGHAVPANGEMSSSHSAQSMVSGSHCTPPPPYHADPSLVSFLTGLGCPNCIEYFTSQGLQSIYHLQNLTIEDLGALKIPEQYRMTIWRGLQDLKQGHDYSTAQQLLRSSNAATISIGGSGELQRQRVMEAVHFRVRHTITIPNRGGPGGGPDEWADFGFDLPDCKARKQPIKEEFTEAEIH

T2: Gluc1-TAp73α (human, UniProt O15350 1-636)
T2 construct: also called full-length TAp73α; source: HEK293T, transfected (pSPICA vector), in cells; not shown: Gluc1 (fragment of Gaussia princeps luciferase), N-terminal, kept
T2 sequence (looked up): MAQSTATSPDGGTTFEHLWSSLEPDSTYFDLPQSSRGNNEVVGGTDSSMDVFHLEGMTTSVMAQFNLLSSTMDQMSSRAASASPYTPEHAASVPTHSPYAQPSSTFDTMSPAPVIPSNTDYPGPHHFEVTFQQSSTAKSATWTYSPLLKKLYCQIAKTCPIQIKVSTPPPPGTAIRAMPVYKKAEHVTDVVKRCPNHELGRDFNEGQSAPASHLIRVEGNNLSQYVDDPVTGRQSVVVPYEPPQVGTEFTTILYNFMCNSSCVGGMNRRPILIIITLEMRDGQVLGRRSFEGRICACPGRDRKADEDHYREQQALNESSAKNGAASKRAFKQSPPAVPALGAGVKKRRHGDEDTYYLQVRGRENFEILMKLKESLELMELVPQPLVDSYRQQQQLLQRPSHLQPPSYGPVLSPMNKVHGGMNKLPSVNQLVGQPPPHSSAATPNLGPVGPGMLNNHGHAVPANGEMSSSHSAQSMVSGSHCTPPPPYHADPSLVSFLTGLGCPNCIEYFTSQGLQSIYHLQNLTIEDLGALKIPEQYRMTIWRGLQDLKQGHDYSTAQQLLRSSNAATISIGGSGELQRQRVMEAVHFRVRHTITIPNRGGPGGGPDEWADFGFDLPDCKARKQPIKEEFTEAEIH


Assays:
Experiment in all cases: split reporter (BiFC, NanoBiT); Gaussia princeps protein complementation assay (GPCA): Gluc1 and Gluc2 N-terminal fusions co-transfected in HEK293T, luminescence of lysates after 48 h as normalized luminescence ratio (NLR); pairs count as interacting if NLR is above 5
Conditions in all cases: partners not purified
Gluc1-ΔNp73α FL = target: T1, Gluc1-ΔNp73α FL
Gluc1-TAp73α = target: T2, Gluc1-TAp73α
Gluc1-E2F4 = target: T3, Gluc1-E2F4 (human, UniProt Q16254 1-413)
T3 construct: human E2F4, whole ORF (bought from Addgene); source: HEK293T, transfected (pSPICA vector), in cells; not shown: Gluc1 (fragment of Gaussia princeps luciferase), N-terminal, kept
T3 sequence (Q16254 whole entry, the tested form may be a part): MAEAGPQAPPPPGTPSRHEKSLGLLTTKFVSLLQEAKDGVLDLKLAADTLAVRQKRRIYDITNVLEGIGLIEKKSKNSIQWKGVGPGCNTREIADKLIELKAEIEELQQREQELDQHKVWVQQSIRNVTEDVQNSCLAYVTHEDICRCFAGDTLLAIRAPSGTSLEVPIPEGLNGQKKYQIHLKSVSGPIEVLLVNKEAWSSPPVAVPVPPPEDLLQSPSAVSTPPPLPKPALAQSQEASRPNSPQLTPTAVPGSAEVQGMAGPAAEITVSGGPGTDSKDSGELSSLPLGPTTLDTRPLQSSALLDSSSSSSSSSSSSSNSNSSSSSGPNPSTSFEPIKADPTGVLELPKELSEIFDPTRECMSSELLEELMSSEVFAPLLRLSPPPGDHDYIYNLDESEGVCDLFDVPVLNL

Row | Binder | normalized luminescence ratio (NLR) (Gluc1-ΔNp73α FL) | binding response relative to that obtained with ΔNp73α (Gluc1-TAp73α) [%] | normalized luminescence ratio (NLR) (Gluc1-E2F4)
1 | Gluc2-E2F4 FL (natural protein, human E2F4, whole ORF (bought from Addgene), 413 residues by the printed numbering; source: HEK293T, transfected (pSPICA vector), in cells; not shown: Gluc2 (fragment of Gaussia princeps luciferase), N-terminal, kept) not shown | > 20 | ~50 | 
2 | Gluc2-DP1 (natural protein, human, UniProt Q14186 1-410, looked up, human DP1, whole ORF (bought from Addgene); source: HEK293T, transfected (pSPICA vector), in cells; not shown: Gluc2 (fragment of Gaussia princeps luciferase), N-terminal, kept) MAKDAGLIEANGELKVFIDQNLSPGKGVVSLVAVHPSTVNPLGKQLLPKTFGQSNVNIAQQVVIGTPQRPAASNTLVVGSPHTPSTHFASQNQPSDSSPWSAGKRNRKGEKNGKGLRHFSMKVCEKVQRKGTTSYNEVADELVAEFSAADNHILPNESAYDQKNIRRRVYDALNVLMAMNIISKEKKEIKWIGLPTNSAQECQNLEVERQRRLERIKQKQSQLQELILQQIAFKNLVQRNRHAEQQASRPPPPNSVIHLPFIIVNTSKKTVIDCSISNDKFEYLFNFDNTFEIHDDIEVLKRMGMACGLESGSCSAEDLKMARSLVPKALEPYVTEMAQGTVGGVFITTAGSTSNGTRFSASDLTNGADGMLATSSNGSQYSGSRVETPVSYVGEDDEEDDDFNENDEDD |  |  | ~500
